Data as given in the nanobody polyreactivity screen of Harvey et al. (2022).

Assay: yeast display, Sf9 membrane polyspecificity reagent, FACS + sequencing; frameworks hold sequencing errors
Summary of the method: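 Using colony PCR, genes from sorted yeast display clones were amplified, then sequenced on MiSeq at 2 × 250 and filtered by CDR length. The clones had been stained with 10% biotinylated, detergent-solubilized Sf9 membrane reagent for 1 hour at 4 °C and sorted by FACS into low and high (top ~1%) gates on anti-HA and streptavidin fluorescence. Polyreactivity labels come from the gate of origin.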

Sequence | polyreactivity (PSR sort gate)
QVQLVESGGGIVQAGGSLRLSCAASGRIFYVNAMGWYRQSPGKERELVAAISRSGSSTYYADSVKGRFTISRDNAKNTVYLQMNSLKPEDTAVYYCAARYYGRSQHHFDYWGQGTQVTVSS | high polyreactivity
QVQLVESGGGLVPAGGSLRLSCAASGRIFRVYAMGWYRQAPGKERELVASISSGGSTNYADSVKGRFTISRDNAKNTVYLQMNSLKPEDTAVYYCAADYWYRLFWYYGAPLDYWGQGTQVTVSS | low polyreactivity
QVQLVESGGGLVQARGSLRLSCAASGSTFDPYAMGWYRQAPGINYSGASTYYADSVKGRFTISRDNAKNTVYLQMNSLKPDDTAVYYCAAEFVAQMNYWGQGTQVNVSS | low polyreactivity
QVQLVESGGGLVQAAGSLRLSCAASGSIFIQYAMGWYRQAPGKERELVAAITRRGGRTYYADSVKGRFTISRDNAKNTVYLQLNSLKPEDTAVYYCNAVPIGQWAYDYWGQGTQVTVSS | high polyreactivity
QVQLVESGGGLVQAGGSLRLSCAASGFIFVYYVMGWYRTAPGKERELVAAITQSGGSTYYADSVKGRFTISRDNAKNTVYLQMNSLKPEDTAVYYCAAYRRTTGGGYDYWGQGTQVTVSS | high polyreactivity
QVKLVESGRALVQAGCSLPLSCAASGRIFTRYAMGWYRQAPGKERELVAAISYGGGGTYYADSVKGSFTISRDNAKNTVYVQMNSLKPEDTAVYYCATDDPLSQINEQGMDYWGQGTQVTVSS | low polyreactivity
QVQLVESGGGIVQAGGSLRLSCAASGITIQGYTMGWYRQEPGKERELVAAISSNGGRTYYADSVKGSFTISRDNAKNTVYLQMNSLKPEDTAVDYCAARKWRLIVDYWGEGTQVTVSS | high polyreactivity
QVQLVESGGGLVQAGGSLRLSCAASGRIFRKNVMGWYRQAPGKERELVAAIRWSGGGTYYADSVKGRFTISRDNAKNTVYLQMNSLKPEDTAVYYCAAVPTSSAYDYWGQGTQVTVSS | high polyreactivity
QVQLLESGGGLVQAGGSLRLSCAASGRIFGRYAMGWYRQAPGKERELVAAISSGGRTNYADSVKGRFTISRDNAKNTVYLQMNSLKPEDTAVYYCAARAYTYQAQSNYWGQGTQVTVSS | high polyreactivity
QVQLVESGGGLVQAGGSLRLSCAASGSIFGSYAMGWYRQAPGKERSTYYADSVKGRFTISRDNAKNTVYLQMNSLKPEDTAVYYCAADTYGYQGSAGGHWGQGTQVTVSS | low polyreactivity
QVQLVESGGGLVQAGGSLRLSCAASGYIFRYYAMGWYREAPGKERELVARINSGGSTYADSVKGRFTISRDNAKNTVYLQMNSLKPEDTAVYYCAADLAKYRSKLGYWGQVTQVTVSS | high polyreactivity
QVQLVESGGGLVQAGGSLRLSCAASGSTFRYNDMGWYIQAPGKERELVDAITRSDSTNYADSVKGRFTISRDNAKNTVYLQMNSLKPEDTAVYYCAARRHYTYGNGPSRGGQMDYWGQGTQVTVSS | high polyreactivity
QVQLVESGGALVQAGGSLRLSCAASGRTFWDYAMGWYREAPGKERELVAAITWGGGSTYYADSVKGRFTISRDNAKNTVYLQMNSLKPVDTAVYYCAAGRGRHTYNYWGQGTQVTVTS | low polyreactivity
QVQLVESGGGLVQAGGSLRLSCAASGSIIPYYAMGWYRQAPGKERELVAAISNSGGRTYYADSVKGRFTISRDNAKNTVYLQMNSLKPEDTAVYYCNAVPFYSKYDYWGQGTQVTVSS | high polyreactivity
QVQVESGGGLVQAGGSLRLSCAASGSIIDQYVMGWYRQAPGKERELVAAISRGGRTYYADSVKGRFTISRDNAKNTVYLQMNSLKPEDTAVYYCAARSDVRGFDYWGQGTQVTVSS | low polyreactivity
QVQLVESGGGLVQAGGSLRLSCAASGSTFQGYALRWYRQAPGKERELVAAITKRSGRTYYADSVKGRFTISRDNAKNTVYLQMNSLKPEDTAVYYCAKVTSYSEYDYWGQGTQVTVSS | high polyreactivity
QVQLVESGGGLVQAGGSLRLSCAASGRIFYLYAMGWYRQAHGKERELVATINTSGGITYYADSVKGRFTISLDNAKNTVYLQLNSLIPEDTAVYYCNADWEWQYFYFRPGGYWGQGTQETVSS | low polyreactivity
QVQLVESGGGLVQAGGSLRLSCAASGFIFHWNAMGWYRQAPGKERELVAAITWRGTNTYYADSVKGRFTISRDNAKNTVYLQMNSLKPEDTAVYYCAGTRNPWPTSFDYWGQGTQVTVSS | low polyreactivity
